From publication PMC2621343, “Ca^2+ Extrusion by NCX Is Compromised in Olfactory Sensory Neurons of OMP^−/− Mice” (PLoS ONE, 2009)

B1: XIP peptide (NCX1 251-271) (peptide)
peptide: RRLLFYKYVYKRYRAGKQRGM
notes: Immobilised on a CM5 chip by carbodiimide chemistry; also called XIP regulatory-peptide of NCX; source: synthetic peptide, HPLC purified
B2: CaM binding peptide of Bex1 (Bex1 50-75) (peptide)
peptide: RGGRRRFRVRQPIAHYRWDLMQRVGE
notes: Immobilised on a CM5 chip by carbodiimide chemistry; also called Bex1 peptide; Bex1 (50–75) peptide; source: synthetic peptide, HPLC purified

Columns and labels:
Conditions in all cases: both partners purified
[1] = biological target: T1, recombinant rat OMP (olfactory marker protein) (rat, UniProt P08523 1-163); assay: SPR; data not shown; peptide immobilised on CM5 chip; OMP flowed over (0-500 nM by the methods), running buffer in the absence or presence of 0.1 mM Ca2+; interaction Ca2+-independent
T1 construct: olfactory marker protein, rat, recombinant
T1 sequence (looked up): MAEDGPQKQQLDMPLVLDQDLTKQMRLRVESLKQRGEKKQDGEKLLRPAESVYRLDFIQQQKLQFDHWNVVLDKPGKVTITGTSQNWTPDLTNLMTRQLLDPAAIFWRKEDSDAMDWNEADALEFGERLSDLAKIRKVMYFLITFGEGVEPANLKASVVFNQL

Bovine calmodulin [2] = biological target: T2, Bovine calmodulin (bovine, UniProt P62157 1-149); assay: SPR; XIP peptide immobilised on CM5 chip (about 700 RU, carbodiimide chemistry); CaM 10, 25, 50, 100, 250 nM flowed over; Biacore 3000; running buffer NaCl 150 mM, HEPES 10 mM, CaCl2 0.1 mM, pH 7.4; 5 µl/min for 2 minutes; 1:1 Langmuir binding model
T2 construct: calmodulin, bovine, purchased from Sigma; the methods say bovine calmodulin purchased from Sigma; also called CaM; recombinant calmodulin (CaM); source: bought: Sigma

Bovine calmodulin [3] = biological target: T2, Bovine calmodulin; assay: SPR; Bex1 (50-75) peptide immobilised on CM5 chip; CaM 31.25, 62.5, 125, 250, 500 nM flowed over; running buffer with 0.1 mM Ca2+; steady-state analysis of equilibrium response, nonlinear 1:1 binding isotherm

Binder | Kd [1] [nM] | Kd (Bovine calmodulin [2]) [nM] | Kd (Bovine calmodulin [3]) [nM]
B1 | 700 | 20 ± 6 | –
B2 | 90000 ± 12000 | – | 280
